Laboratory results as given in patent EP4667491A1 (Genome and Company, dated 2025).
Where a chain is given by its changes, count along the chain named. Names may count otherwise. Read-outs that look alike come from different tables or passages of the source.

How the values were obtained:
[1] = target: T1, human CNTN4 expressed on the cell surface (human, UniProt Q8IWV2 19-1000); test: flow cytometry; IgG on human CNTN4-overexpressing HEK293 cells
T1 construct: whole, on cells; also called human CNTN4 cell
T1 sequence (looked up): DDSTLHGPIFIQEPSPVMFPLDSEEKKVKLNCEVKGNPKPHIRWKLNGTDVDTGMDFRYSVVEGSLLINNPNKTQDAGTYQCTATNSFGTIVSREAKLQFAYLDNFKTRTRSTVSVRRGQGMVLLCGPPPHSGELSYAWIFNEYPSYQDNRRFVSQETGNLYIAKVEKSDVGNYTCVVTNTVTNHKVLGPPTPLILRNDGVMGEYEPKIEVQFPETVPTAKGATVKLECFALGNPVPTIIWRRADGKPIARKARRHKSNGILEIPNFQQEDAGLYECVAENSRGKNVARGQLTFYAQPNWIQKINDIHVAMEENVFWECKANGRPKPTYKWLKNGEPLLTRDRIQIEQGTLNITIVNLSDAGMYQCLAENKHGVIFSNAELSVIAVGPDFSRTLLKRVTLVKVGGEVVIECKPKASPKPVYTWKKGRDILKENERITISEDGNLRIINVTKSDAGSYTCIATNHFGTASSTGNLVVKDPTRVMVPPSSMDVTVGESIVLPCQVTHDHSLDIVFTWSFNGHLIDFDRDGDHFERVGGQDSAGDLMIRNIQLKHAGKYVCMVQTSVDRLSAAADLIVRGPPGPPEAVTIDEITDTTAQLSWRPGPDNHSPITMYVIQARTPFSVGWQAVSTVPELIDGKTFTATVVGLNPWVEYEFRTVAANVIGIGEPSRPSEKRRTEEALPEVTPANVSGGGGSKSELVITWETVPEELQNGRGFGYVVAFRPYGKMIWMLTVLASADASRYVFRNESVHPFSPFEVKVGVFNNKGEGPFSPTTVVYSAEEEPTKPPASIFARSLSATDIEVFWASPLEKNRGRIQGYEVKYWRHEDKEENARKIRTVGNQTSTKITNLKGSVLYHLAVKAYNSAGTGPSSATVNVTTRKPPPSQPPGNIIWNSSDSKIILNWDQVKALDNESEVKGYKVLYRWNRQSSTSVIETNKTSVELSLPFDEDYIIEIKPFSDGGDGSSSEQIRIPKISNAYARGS

Human CNTN4 (His-tagged) [2] = target: T2, Human CNTN4 (His-tagged) (human, UniProt Q8IWV2 19-1000, limits assumed); test: ELISA; His-tagged human CNTN4 captured by anti-His antibody, anti-human IgG-HRP
T2 construct: also called human CNTN4 protein; not shown: His tag
T2 sequence (looked up): T1 sequence (looked up)

[3] = target: T1, human CNTN4 expressed on the cell …; test: flow cytometry; IgG on human CNTN4-overexpressing HEK293 cells; remark: listed apart in the source
Human CNTN4 (His-tagged) [4] = target: T2, Human CNTN4 (His-tagged); test: ELISA; His-tagged human CNTN4 captured by anti-His antibody, anti-human IgG-HRP; remark: listed apart in the source
Human CNTN4 (His-tagged) [5] = target: T2, Human CNTN4 (His-tagged); test: SPR; IgG captured on CM5 chip, His-tagged human CNTN4 as analyte, 1:1 fit

B1: A114-IgG antibody (antibody, V domains shown)
VH: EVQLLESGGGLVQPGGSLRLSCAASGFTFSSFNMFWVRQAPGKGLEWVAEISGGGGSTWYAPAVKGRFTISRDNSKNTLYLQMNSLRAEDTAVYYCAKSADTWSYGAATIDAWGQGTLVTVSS
VL: ELTQDPAVSVALGQTVRITCSGSSGSYGWYQQKPGQAPVLVIYDNTNRPSGIPDRFSGSSSGNTASLTITGAQAEDEADYYCGGYWGSTDVFGGGTKLTVL
notes: VH fused to CH1, hinge, CH2 and CH3 of human IgG4 (S228P); also called A114-IgG Ab; Al14-IgG Ab
EC50 [1]: 0.262 nM | TOP MFI [1]: 470 MFI | EC50 (Human CNTN4 (His-tagged) [2]): 0.129 nM | EC50 [3]: 0.539 nM

B2: A102-IgG antibody (antibody, V domains shown)
VH: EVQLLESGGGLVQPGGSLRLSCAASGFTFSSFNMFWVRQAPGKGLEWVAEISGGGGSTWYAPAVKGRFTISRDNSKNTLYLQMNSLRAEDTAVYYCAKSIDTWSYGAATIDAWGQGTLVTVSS
VL: B1 VL with W86D
notes: VH fused to CH1, hinge, CH2 and CH3 of human IgG4 (S228P); also called A102-IgG Ab
EC50 [1]: 0.066 nM | TOP MFI [1]: 328 MFI | EC50 (Human CNTN4 (His-tagged) [2]): 0.057 nM

B3: A104-IgG antibody (antibody, V domains shown)
VH: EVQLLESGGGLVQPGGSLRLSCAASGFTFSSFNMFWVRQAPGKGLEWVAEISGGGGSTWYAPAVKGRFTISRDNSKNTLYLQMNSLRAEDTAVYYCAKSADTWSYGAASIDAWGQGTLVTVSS
VL: B1 VL with W86D
notes: VH fused to CH1, hinge, CH2 and CH3 of human IgG4 (S228P); also called A104-IgG Ab
EC50 [1]: 0.109 nM | TOP MFI [1]: 358 MFI | EC50 (Human CNTN4 (His-tagged) [2]): 0.069 nM

B4: A106-IgG antibody (antibody, V domains shown)
VH: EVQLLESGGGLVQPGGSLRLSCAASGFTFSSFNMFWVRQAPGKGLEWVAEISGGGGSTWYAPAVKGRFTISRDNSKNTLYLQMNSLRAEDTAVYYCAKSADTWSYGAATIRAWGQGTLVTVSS
VL: B1 VL with W86D
notes: VH fused to CH1, hinge, CH2 and CH3 of human IgG4 (S228P); also called A106-IgG Ab
EC50 [1]: 0.086 nM | TOP MFI [1]: 336 MFI | EC50 (Human CNTN4 (His-tagged) [2]): 0.042 nM

B5: A109-IgG antibody (antibody, V domains shown)
VH: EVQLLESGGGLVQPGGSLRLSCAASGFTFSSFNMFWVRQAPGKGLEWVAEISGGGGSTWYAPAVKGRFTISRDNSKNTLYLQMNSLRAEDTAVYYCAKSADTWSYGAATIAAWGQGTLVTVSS
VL: B1 VL with W86D
notes: VH fused to CH1, hinge, CH2 and CH3 of human IgG4 (S228P); also called A109-IgG Ab
EC50 [1]: 0.082 nM | TOP MFI [1]: 357 MFI | EC50 (Human CNTN4 (His-tagged) [2]): 0.041 nM

B6: A112-IgG antibody (antibody, V domains shown)
VH: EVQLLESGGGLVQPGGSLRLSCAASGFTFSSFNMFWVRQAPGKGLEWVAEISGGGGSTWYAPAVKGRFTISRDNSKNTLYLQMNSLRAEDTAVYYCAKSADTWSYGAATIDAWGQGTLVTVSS
VL: B1 VL with S23R, W86D
notes: VH fused to CH1, hinge, CH2 and CH3 of human IgG4 (S228P); also called A112-IgG Ab
EC50 [1]: 0.204 nM | TOP MFI [1]: 422 MFI | EC50 (Human CNTN4 (His-tagged) [2]): 0.075 nM

B7: A202-IgG antibody (antibody, V domains shown)
VH: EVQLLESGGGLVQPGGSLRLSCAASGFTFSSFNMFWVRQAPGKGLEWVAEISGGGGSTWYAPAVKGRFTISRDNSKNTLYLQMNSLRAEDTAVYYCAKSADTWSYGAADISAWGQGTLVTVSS
VL: B1 VL with S23R
notes: VH fused to CH1, hinge, CH2 and CH3 of human IgG4 (S228P); also called A202-IgG Ab
EC50 (Human CNTN4 (His-tagged) [4]): 0.035 nM

B8: A204-IgG antibody (antibody, V domains shown)
VH: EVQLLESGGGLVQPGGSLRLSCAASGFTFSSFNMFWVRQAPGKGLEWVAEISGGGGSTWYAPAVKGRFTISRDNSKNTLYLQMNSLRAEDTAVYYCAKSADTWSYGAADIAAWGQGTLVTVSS
VL: B1 VL with S23R
notes: VH fused to CH1, hinge, CH2 and CH3 of human IgG4 (S228P); also called A204-IgG Ab
Kd (Human CNTN4 (His-tagged) [5]): 0.663 nM | EC50 (Human CNTN4 (His-tagged) [4]): 0.015 nM

B9: A206-IgG antibody (antibody, V domains shown)
VH: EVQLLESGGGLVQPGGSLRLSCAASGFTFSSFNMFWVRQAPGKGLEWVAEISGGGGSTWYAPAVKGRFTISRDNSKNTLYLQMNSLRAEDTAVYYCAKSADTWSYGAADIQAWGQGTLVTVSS
VL: B1 VL with S23R
notes: VH fused to CH1, hinge, CH2 and CH3 of human IgG4 (S228P); also called A206-IgG Ab
Kd (Human CNTN4 (His-tagged) [5]): 0.702 nM | EC50 (Human CNTN4 (His-tagged) [4]): 0.027 nM

B10: A209-IgG antibody (antibody, V domains shown)
VH: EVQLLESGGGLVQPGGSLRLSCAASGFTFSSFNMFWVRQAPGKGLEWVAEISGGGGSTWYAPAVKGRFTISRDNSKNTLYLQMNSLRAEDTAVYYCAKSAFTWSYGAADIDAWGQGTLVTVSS
VL: B1 VL with S23R
notes: VH fused to CH1, hinge, CH2 and CH3 of human IgG4 (S228P); also called A209-IgG Ab; A209-TgG Ab
Kd (Human CNTN4 (His-tagged) [5]): 0.662 nM | EC50 (Human CNTN4 (His-tagged) [4]): 0.026 nM

B11: A211-IgG antibody (antibody, V domains shown)
VH: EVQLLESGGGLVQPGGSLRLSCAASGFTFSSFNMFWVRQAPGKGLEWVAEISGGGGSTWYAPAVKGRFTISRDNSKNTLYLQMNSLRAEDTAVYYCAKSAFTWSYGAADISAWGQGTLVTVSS
VL: B1 VL with S23R
notes: VH fused to CH1, hinge, CH2 and CH3 of human IgG4 (S228P); also called A211-IgG Ab
Kd (Human CNTN4 (His-tagged) [5]): 0.709 nM | EC50 [3]: 0.316 nM | EC50 (Human CNTN4 (His-tagged) [4]): 0.033 nM

B12: A217-IgG antibody (antibody, V domains shown)
VH: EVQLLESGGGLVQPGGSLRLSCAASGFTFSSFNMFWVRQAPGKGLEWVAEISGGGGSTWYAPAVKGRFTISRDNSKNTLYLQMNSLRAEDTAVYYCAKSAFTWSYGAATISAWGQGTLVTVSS
VL: B1 VL
notes: VH fused to CH1, hinge, CH2 and CH3 of human IgG4 (S228P); also called A217-IgG Ab
Kd (Human CNTN4 (His-tagged) [5]): 1.18 nM | EC50 (Human CNTN4 (His-tagged) [4]): 0.033 nM

B13: A108-IgG antibody (antibody, V domains shown)
VH: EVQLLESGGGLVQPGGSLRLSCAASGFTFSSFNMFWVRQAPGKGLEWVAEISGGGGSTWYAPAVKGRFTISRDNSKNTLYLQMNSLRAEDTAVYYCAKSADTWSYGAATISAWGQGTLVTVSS
VL: B1 VL with W86D
notes: VH fused to CH1, hinge, CH2 and CH3 of human IgG4 (S228P); also called A108-IgG Ab
EC50 [1]: 0.074 nM | TOP MFI [1]: 356 MFI | EC50 (Human CNTN4 (His-tagged) [2]): 0.034 nM

B14: A103-IgG antibody (antibody, V domains shown)
VH: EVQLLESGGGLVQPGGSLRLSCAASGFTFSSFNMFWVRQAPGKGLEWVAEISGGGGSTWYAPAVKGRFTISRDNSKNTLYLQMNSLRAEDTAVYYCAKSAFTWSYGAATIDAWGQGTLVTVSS
VL: B1 VL with W86D
notes: VH fused to CH1, hinge, CH2 and CH3 of human IgG4 (S228P); also called A103-IgG Ab
EC50 [1]: 0.09 nM | TOP MFI [1]: 378 MFI | EC50 (Human CNTN4 (His-tagged) [2]): 0.031 nM

B15: A105-IgG antibody (antibody, V domains shown)
VH: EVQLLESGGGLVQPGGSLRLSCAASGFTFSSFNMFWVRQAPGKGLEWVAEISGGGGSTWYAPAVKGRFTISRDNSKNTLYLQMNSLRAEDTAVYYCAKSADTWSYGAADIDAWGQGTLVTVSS
VL: B1 VL with W86D
notes: VH fused to CH1, hinge, CH2 and CH3 of human IgG4 (S228P); also called A105-IgG Ab
EC50 [1]: 0.234 nM | TOP MFI [1]: 454 MFI | EC50 (Human CNTN4 (His-tagged) [2]): 0.153 nM
